Measured values as given in article PMC12598616, “Design and optimization of caspase-1-responsive fluorescent probes for pyroptosis imaging and anti-pyroptosis drug screening” (Chemical Science, 2025).

Biological target: T1, caspase-1 (Homo sapiens, UniProt P29466)
T1 sequence (P29466 120-297 limits assumed): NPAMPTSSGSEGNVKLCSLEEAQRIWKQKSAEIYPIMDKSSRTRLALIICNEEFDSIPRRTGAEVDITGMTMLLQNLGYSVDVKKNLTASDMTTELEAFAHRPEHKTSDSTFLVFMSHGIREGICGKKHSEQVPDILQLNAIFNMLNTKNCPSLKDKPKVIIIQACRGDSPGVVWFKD
T1 sequence (P29466 317-404 limits assumed): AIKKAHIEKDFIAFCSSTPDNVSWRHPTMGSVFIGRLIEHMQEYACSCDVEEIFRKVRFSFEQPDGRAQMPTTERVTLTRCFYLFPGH
Assay: Enzyme kinetic studies with caspase-1
Assay type: biochemical
Details: probe 0.5–4 μM, Cas-1 2 U/mL, HEPES assay buffer, 37 °C, read every 2 min, λex 510 nm/λem 585 nm, Lineweaver-Burk plot; read-out: Michaelis constant (KM)
Protocol: The spectral and chemical properties of all probes were then evaluated. Upon interaction with Cas-1, the specific peptide of the probes is cleaved, leading to the disruption of the FRET process in the system and the recovery of donor fluorescence (Fig. 2a). Prior to fluorescence detection, the UV-vis absorption spectra of the probes were acquired. […] Subsequently, the sensitivity of the probes towards Cas-1 was measured in HEPES buffer (50 mM HEPES, 50 mM NaCl, 0.1% chaps, 5% glycerol, 10 mM DTT, 10 mM EDTA). […] The response differences among the probes were more intuitively observed by analyzing the standard curves of fluorescence intensity at 585 nm against the concentration of Cas-1 (Fig. 2b). […] The reaction kinetics of the probes were also measured by monitoring the fluorescence intensity of FPy1, YPy1 and WPy1 (0.5–4 μM) following incubation with Cas-1 (2 U mL^−1) (Fig. S3a–f). […] The reaction time of the probes was also investigated by monitoring the fluorescence spectra of the probes (5 μM) incubated with Cas-1 (2 U mL^−1) at various time intervals (Fig. S4a–c). […] Finally, the selectivity of the probes was evaluated. A series of potential biologically relevant interferents were selected, and the results illustrated that these interferents had no effect on the probes (Fig. S5a–c). […]

## –FLTDG– [FPy1, RhoB donor, hNR quencher]
  Km: 4.42 µM
